Laboratory results: publication PMC5585231

Target: CD3 ζ SNID2 peptide (22-mer)
Experiment: ITC; MicroCal iTC200; 20 mM HEPES (pH 8.0), 100 mM NaCl, 25 °C; typically Nef at 200 μM injected from the syringe to 20 μM CD3 ζ in the cell

Chain of CD3 ζ SNID2 peptide (22-mer) (P20963 other isoform, or with tags, fused parts or gaps): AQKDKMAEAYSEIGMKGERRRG

“SIV_(mac239) Nef 66–235 (SIV Nef-B) (from UniProt Q5QGG3 66-235) (domain or fragment)” was tested, and the Kd was 2.6 µM.
